Test results published in US10513713B2, “Modified host cells having tolerance to α-olefins” (priority 2014, dated 2019).
Residue numbers refer to the chain shown, from its start. Names may count otherwise. Converted amounts (≈) assume the structure as drawn.

B1: A279T: E. coli AcrB (SEQ ID NO:1) variant with amino acid mutation A279T (protein)
chain: MPNFFIDRPIFAWVIAIIIMLAGGLAILKLPVAQYPTIAPPAVTISASYPGADAKTVQDTVTQVIEQNMNGIDNLMYMSSNSDSTGTVQITLTFESGTDADIAQVQVQNKLQLAMPLLPQEVQQQGVSVEKSSSSFLMVVGVINTDGTMTQEDISDYVAANMKDAISRTSGVGDVQLFGSQYAMRIWMNPNELNKFQLTPVDVITAIKAQNAQVAAGQLGGTPPVKGQQLNASIIAQTRLTSTEEFGKILLKVNQDGSRVLLRDVAKIELGGENYDIITEFNGQPASGLGIKLATGANALDTAAAIRAELAKMEPFFPSGLKIVYPYDTTPFVKISIHEVVKTLVEAIILVFLVMYLFLQNFRATLIPTIAVPVVLLGTFAVLAAFGFSINTLTMFGMVLAIGLLVDDAIVVVENVERVMAEEGLPPKEATRKSMGQIQGALVGIAMVLSAVFVPMAFFGGSTGAIYRQFSITIVSAMALSVLVALILTPALCATMLKPIAKGDHGEGKKGFFGWFNRMFEKSTHHYTDSVGGILRSTGRYLVLYLIIVVGMAYLFVRLPSSFLPDEDQGVFMTMVQLPAGATQERTQKVLNEVTHYYLTKEKNNVESVFAVNGFGFAGRGQNTGIAFVSLKDWADRPGEENKVEAITMRATRAFSQIKDAMVFAFNLPAIVELGTATGFDFELIDQAGLGHEKLTQARNQLLAEAAKHPDMLTSVRPNGLEDTPQFKIDIDQEKAQALGVSINDINTTLGAAWGGSYVNDFIDRGRVKKVYVMSEAKYRMLPDDIGDWYVRAADGQMVPFSAFSSSRWEYGSPRLERYNGLPSMEILGQAAPGKSTGEAMELMEQLASKLPTGVGYDWTGMSYQERLSGNQAPSLYAISLIVVFLCLAALYESWSIPFSVMLVVPLGVIGALLAATFRGLTNDVYFQVGLLTTIGLSAKNAILIVEFAKDLMDKEGKGLIEATLDAVRMRLRPILMTSLAFILGVMPLVISTGAGSGAQNAVGTGVMGGMVTATVLAIFFVPVFFVVVRRRFSRKNEDIEHSHTVDHH
modifications: E. coli
B2: L822P: E. coli AcrB (SEQ ID NO:1) variant with amino acid mutation L822P (protein)
chain: B1 chain with T279A, L822P
modifications: E. coli
B3: F617L: E. coli AcrB (SEQ ID NO:1) variant with amino acid mutation F617L (protein)
chain: B1 chain with T279A, F617L
modifications: E. coli
B4: F1033Y: E. coli AcrB (SEQ ID NO:1) variant with amino acid mutation F1033Y (protein)
chain: B1 chain with T279A, F1033Y
modifications: E. coli
B5: F927S: E. coli AcrB (SEQ ID NO:1) variant with amino acid mutation F927S (protein)
chain: B1 chain with T279A, F927S
modifications: E. coli
B6: TolC: outer membrane protein TolC encoded on plasmid pTolCa (protein, UniProt P02930 23-493, looked up)
Outer membrane protein TolC: ENLMQVYQQARLSNPELRKSAADRDAAFEKINEARSPLLPQLGLGADYTYSNGYRDANGINSNATSASLQLTQSIFDMSKWRALTLQEKAAGIQDVTYQTDQQTLILNTATAYFNVLNAIDVLSYTQAQKEAIYRQLDQTTQRFNVGLVAITDVQNARAQYDTVLANEVTARNNLDNAVEQLRQITGNYYPELAALNVENFKTDKPQPVNALLKEAEKRNLSLLQARLSQDLAREQIRQAQDGHLPTLDLTASTGISDTSYSGSKTRGAAGTQYDDSNMGQNKVGLSFSLPIYQGGMVNSQVKQAQYNFVGASEQLESAHRSVVQTVRSSFNNINASISSINAYKQAVVSAQSSLDAMEAGYSVGTRTIVDVLDATTTLYNAKQELANARYNYLINQLNIKSALGTLNEQDLLALNNALSKPVSTNPENVAPQTPEQNAIADGYAPDSPAPVVQQTSARTTTSNGHNPFRN

These molecules were tested on E. coli K12 (assay: microbe, parasite or virus in culture). Conditions: Escherichia coli, K12, 2 h, read-out: toxic dose (concentration of compound that decreased growth by half).
Type: cell-based
Procedure: A: The olefin compounds were added to different concentrations as indicated to an E. coli K12 culture at an OD600=0.2. OD was monitored after 2 hour at 37° C. The bars represent standard deviation between duplicates B: A survival test in presence of 1-octene was performed. Six different dilutions of a culture (10 cells to 10^7 cells, left to right) of E. coli K12 were spotted in triplicate on an agar plate. […] Plates were incubated at room temperature for 2 days and then opened to allow evaporation of the olefin.
In this example, toxicity of olefin compounds was evaluated. A toxic dose was defined as the concentration of compound that decreased growth by half.

Molecule | IC50
C=CCCCC [1-hexene] | 65 µg/mL (≈ 772 µM)
C=Cc1ccccc1 [styrene] | 110 µg/mL (≈ 1060 µM)

These molecules were tested on E. coli K12 ΔacrAB (assay: Survival assay on agar plate in olefin saturated atmosphere, strains producing AcrAB or AcrB variants). Conditions: 1-hexene saturated atmosphere.
Type: cell-based
Procedure: FIG. 2: impact of AcrAB production on growth, in presence of styrene 1-hexene, 1-octene and 1-nonene on cell growth. A: Different concentrations of styrene were added to an OD600=0.2 culture of E. coli K12 ΔacrAB containing the pABc (white) or the control plasmid p0c (black). OD density was monitored after 2 hours of growth at 37° C. The bars represent standard deviation between duplicates. B: A survival test in presence of 1-hexene, 1-octene, or 1-nonene saturated atmosphere was performed. Six different dilutions of cultures (10 cells to 10^7 cells, left to right on the figure) were spotted in triplicate on an agar plates. Plates were then exposed to the aforementioned chemicals.
FIG. 4: Impact of beneficial mutations on AcrB on tolerance to 1-hexene, A: Survival test of E. coli strain producing either the AcrB wild type or variants in a 1-hexene saturated atmosphere was performed. Two dilutions of cultures (Dilution 1: 10^5 cells and Dilution 2: 10^4 cells) were spotted in triplicate on an agar plate. B: Localization of the 6 beneficial mutations represented on the structure of a single monomer of AcrB or C: on the structure of the AcrB trimer.
FIG. 6: Impact of beneficial mutations on AcrB on tolerance to 1-hexene. A: Survival test of E. coli strain producing either the AcrB Wild type or variants with 1, 2 or several beneficial mutations, in an 1-hexene saturated atmosphere was performed. Two dilutions of cultures (Dilution 2: 10^4 cells and Dilution 3: 10^3 cells) were spotted in triplicate on an agar plate. B: Soluble fraction of total proteins from a culture of strains producing either the wild type, either the variant F617L, either the variant 6 (A279T, Q584R, F617L) were analyzed by western blot using anti-His antibody.
For agar plate based assays, cells were first streaked overnight and few colonies were used to inoculate a preculture of 6 mL of LB-Cm with glucose (2 g/L) and arabinose (5 mM). At OD60=1 at 37° C., the cultures were used to prepare a dilution series. Dilution 0 (D0) corresponds to the OD600, =1, and contains ˜10^9 cells/mL. Dilution 1 (D1) is a 10-fold dilution of D0, dilution 2 (D2) a 10-fold dilution of D1 up to dilution 5 (D5), which contains ˜10^4 cells/mL. 10 μL of each dilution was spotted in triplicate on LB-agar plates (single well plates, Thermo Scientific, Waltham, Mass.) containing 30 mL of LB-agar, Cm (30 mg/L), glucose (2 g/L) and arabinose (5 mM). Small containers (microfuge tube lids) were placed on the open lid of the agar plate and filled with 400 to 600 μL of 1-hexene or 1-octene or with 75 μL of 1-nonene. The agar plates were then inverted over the lid, cells facing the olefin compound, sealed with parafilm, placed in the plastic bag (the original packaging for the petri dishes) and incubated for 2 days at room temperature. For 1-octene, a second condition, via overlaying 2 mL of compound on the top of the agar submerging the cells, was used. TolC overexpression impact was examined using the same method, but in this case, the LB media and the LB-agar were also supplemented with ampicillin (100 mg/L) and IPTG (100 μM). […]

Molecule | efficiency among the beneficial mutations
B1 | more efficient
B2 | more efficient
B3 | more efficient

Same assay, conditions: single mutation AcrB variants, 1-hexene saturated atmosphere, FIG. 4A

Molecule | tolerance to 1-hexene relative to wild type AcrB sequence
B1 | improvement in tolerance
B4 | improvement in tolerance
B2 | improvement in tolerance
B3 | improvement in tolerance
B5 | improvement in tolerance

The molecules below were run on E. coli K12 wild type (assay: Survival test in 1-hexene saturated atmosphere on over-production of AcrA, AcrB and TolC). Conditions: FIG. 3.
Type: cell-based
Procedure: Six different dilutions of cultures (10 cells to 10^7 cells, left to right on the picture) were spotted in triplicate on an agar plate.
For agar plate based assays, cells were first streaked overnight and few colonies were used to inoculate a preculture of 6 mL of LB-Cm with glucose (2 g/L) and arabinose (5 mM). At OD60=1 at 37° C., the cultures were used to prepare a dilution series. Dilution 0 (D0) corresponds to the OD600, =1, and contains ˜10^9 cells/mL. Dilution 1 (D1) is a 10-fold dilution of D0, dilution 2 (D2) a 10-fold dilution of D1 up to dilution 5 (D5), which contains ˜10^4 cells/mL. 10 μL of each dilution was spotted in triplicate on LB-agar plates (single well plates, Thermo Scientific, Waltham, Mass.) containing 30 mL of LB-agar, Cm (30 mg/L), glucose (2 g/L) and arabinose (5 mM). […] The agar plates were then inverted over the lid, cells facing the olefin compound, sealed with parafilm, placed in the plastic bag (the original packaging for the petri dishes) and incubated for 2 days at room temperature. For 1-octene, a second condition, via overlaying 2 mL of compound on the top of the agar submerging the cells, was used. TolC overexpression impact was examined using the same method, but in this case, the LB media and the LB-agar were also supplemented with ampicillin (100 mg/L) and IPTG (100 μM).

Molecule | tolerance to 1-hexene on over-expression in the wild type strain
acrA and acrB and TolC: E. coli tripartite RND efflux pump AcrAB-TolC, over-expressed from pABc and pTolCa | increased tolerance
B6 | does not improve the survival
